Measured values reported in patent US11708423B2, “Chimeric engulfment receptor molecules and methods of use” (CERO THERAPEUTICS, INC., priority 2017, dated 2023).

B1: CER122: Tim4 binding and transmembrane domains, TLR2 primary and DAP12 secondary signaling domains; SEQ ID NO:149 (protein)
chain: MSKGLLLLWLVTELWWLYLTPAASEDTIIGFLGQPVTLPCHYLSWSQSRNSMCWGKGSCPNSKCNAELLRTDGTRIISRKSTKYTLLGKVQFGEVSLTISNTNRGDSGVYCCRIEVPGWFNDVKKNVRLELRRATTTKKPTTTTRPTTTPYVTTTTPELLPTTVMTTSVLPTTTPPQTLATTAFSTAVTTCPSTTPGSFSQETTKGSAFTTESETLPASNHSQRSMMTISTDIAVLRPTGSNPGILPSTSQLTTQKTTLTTSESLQKTTKSHQINSRQTILIIACCVGFVLMVLLFLAFLHRFHGLWYMKMMWAWLQAKRKPRKAPSRNICYDAFVSYSERDAYWVENLMVQELENFNPPFKLCLHKRDFIPGKWIIDNIIDSIEKSHKTVFVLSENFVKSEWCKYELDFSHFRLFDENNDAAILILLEPIEKKAIPQRFCKLRKIMNTKTYLEWPMDEAQREGFWVNLRAAIKSYFLGRLVPRGRGAAEAATRKQRITETESPYQELQGQRSDVYSDLNTQRPYYK
modifications: CER122 protein
B2: CER104: Tim4 binding and transmembrane domains, TLR8 primary and DAP12 secondary signaling domains; SEQ ID NO:133 (protein)
chain: MSKGLLLLWLVTELWWLYLTPAASEDTIIGFLGQPVTLPCHYLSWSQSRNSMCWGKGSCPNSKCNAELLRTDGTRIISRKSTKYTLLGKVQFGEVSLTISNTNRGDSGVYCCRIEVPGWFNDVKKNVRLELRRATTTKKPTTTTRPTTTPYVTTTTPELLPTTVMTTSVLPTTTPPQTLATTAFSTAVTTCPSTTPGSFSQETTKGSAFTTESETLPASNHSQRSMMTISTDIAVLRPTGSNPGILPSTSQLTTQKTTLTTSESLQKTTKSHQINSRQTILIIACCVGFVLMVLLFLAFLHHLFYWDVWFIYNVCLAKVKGYRSLSTSQTFYDAYISYDTKDASVTDWVINELRYHLEESRDKNVLLCLEERDWDPGLAIIDNLMQSINQSKKTVFVLTKKYAKSWNFKTAFYLALQRLMDENMDVIIFILLEPVLQHSQYLRLRQRICKSSILQWPDNPKAEGLFWQTLRNVVLTENDSRYNNMYVDSIKQYYFLGRLVPRGRGAAEAATRKQRITETESPYQELQGQRSDVYSDLNTQRPYYK
modifications: CER104 protein
B3: CER21: Tim4 binding and transmembrane domains, TLR8 signaling domain; SEQ ID NO:88 (protein)
chain: MSKGLLLLWLVTELWWLYLTPAASEDTIIGFLGQPVTLPCHYLSWSQSRNSMCWGKGSCPNSKCNAELLRTDGTRIISRKSTKYTLLGKVQFGEVSLTISNTNRGDSGVYCCRIEVPGWFNDVKKNVRLELRRATTTKKPTTTTRPTTTPYVTTTTPELLPTTVMTTSVLPTTTPPQTLATTAFSTAVTTCPSTTPGSFSQETTKGSAFTTESETLPASNHSQRSMMTISTDIAVLRPTGSNPGILPSTSQLTTQKTTLTTSESLQKTTKSHQINSRQTILIIACCVGFVLMVLLFLAFLHHLFYWDVWFIYNVCLAKVKGYRSLSTSQTFYDAYISYDTKDASVTDWVINELRYHLEESRDKNVLLCLEERDWDPGLAIIDNLMQSINQSKKTVFVLTKKYAKSWNFKTAFYLALQRLMDENMDVIIFILLEPVLQHSQYLRLRQRICKSSILQWPDNPKAEGLFWQTLRNVVLTENDSRYNNMYVDSIKQY
modifications: CER21 chimeric engulfment receptor
B4: CER126: Tim4 binding and transmembrane domains, TLR2 primary and TRAF2 secondary signaling domains; SEQ ID NO:174 (protein)
chain: MSKGLLLLWLVTELWWLYLTPAASEDTIIGFLGQPVTLPCHYLSWSQSRNSMCWGKGSCPNSKCNAELLRTDGTRIISRKSTKYTLLGKVQFGEVSLTISNTNRGDSGVYCCRIEVPGWFNDVKKNVRLELRRATTTKKPTTTTRPTTTPYVTTTTPELLPTTVMTTSVLPTTTPPQTLATTAFSTAVTTCPSTTPGSFSQETTKGSAFTTESETLPASNHSQRSMMTISTDIAVLRPTGSNPGILPSTSQLTTQKTTLTTSESLQKTTKSHQINSRQTILIIACCVGFVLMVLLFLAFLHRFHGLWYMKMMWAWLQAKRKPRKAPSRNICYDAFVSYSERDAYWVENLMVQELENFNPPFKLCLHKRDFIPGKWIIDNIIDSIEKSHKTVFVLSENFVKSEWCKYELDFSHFRLFDENNDAAILILLEPIEKKAIPQRFCKLRKIMNTKTYLEWPMDEAQREGFWVNLRAAIKSMAAASVTPPGSLELLQPGFSKTLLGTKLEAKYLCSACRNVLRRPFQAQCGHRYCSFCLASILSSGPQNCAACVHEGIYEEGISILESSSAFPDNAARREVESLPAVCPSDGCTWKGTLKEYESCHEGRCPLMLTECPACKGLVRLGEKERHLEHECPERSLSCRHCRAPCCGADVKAHHEVCPKFPLTCDGCGKKKIPREKFQDHVKTCGKCRVPCRFHAIGCLETVEGEKQQEHEVQWLREHLAMLLSSVLEAKPLLGDQSHAGSELLQRCESLEKKTATFENIVCVLNREVERVAMTAEAC
modifications: CER126 protein

Tests used:
[1] = system: HCC827 lung adenocarcinoma cells; experiment: MTT viability and bright field microscopy of HCC827 cells with CER T cells and Osimeritinib; format: cell-based; conditions: Osimeritinib 1 nM, 48 hours, CD4+ T cells
Text: CD4+ T cells were transduced with lentiviral vectors encoding various CERs (CER21, CER108, CER104, CER129, CER27, CER120, CER122, CER123, CER124, or CER126). Mock transduced (vector only) CD4+ T cells were used as control. CER21 comprises a Tim4 binding domain, Tim4 transmembrane domain, and an engulfment signaling domain comprising a primary engulfment signaling domain comprising a TLR8 signaling domain. CER21 has a polypeptide sequence as set forth in SEQ ID NO:88. CER108 has a polypeptide sequence as set forth in SEQ ID NO:137 and comprises a Tim4 binding domain, Tim4 transmembrane domain, and an engulfment signaling domain comprising a primary engulfment signaling domain comprising a DAP12 signaling domain and a secondary engulfment signaling domain comprising a TLR8 signaling domain. CER104 has a polypeptide sequence as set forth in SEQ ID NO:133 and comprises a Tim4 binding domain, Tim4 transmembrane domain, and an engulfment signaling domain comprising a primary engulfment signaling domain comprising a TLR8 signaling domain and a secondary engulfment signaling domain comprising a DAP12 signaling domain. CER129 has a polypeptide sequence as set forth in SEQ ID NO:177 and comprises a Tim4 binding domain, Tim4 transmembrane domain, and an engulfment signaling domain comprising a primary engulfment signaling domain comprising a TLR8 signaling domain and a secondary engulfment signaling domain comprising a TRAF2 signaling domain. CER27 comprises a Tim4 binding domain, Tim4 transmembrane domain, and an engulfment signaling domain comprising a primary engulfment signaling domain comprising a TLR2 signaling domain. CER27 has a polypeptide sequence as set forth in SEQ ID NO:93. […] T cells were washed away, and the number of viable HCC827 cells was quantified using a calorimetric MTT assay. […]

A549 ALK+ cells = experiment: MTT viability and bright field microscopy of A549 ALK+ cells with CER T cells and ALK inhibitor; format: cell-based; conditions: for in vitro growth/viability of A549 ALK+ cells (MTT): Alectinib or Crizotinib 250 nM-10 μM, E:T 2:1 and 5:1; for bright field microscopy of A549 ALK+ co-culture: Alectinib 3.7 μM, vs mock-transduced T cells
Text: An […] translocation was introduced into A549 cells. […] CER104 has a polypeptide sequence set forth in SEQ ID NO:133 and comprises a Tim4 binding domain, Tim4 transmembrane domain, and an engulfment signaling domain comprising a primary engulfment signaling domain comprising a TLR8 signaling domain and a secondary engulfment signaling domain comprising a DAP12 signaling domain. CER122 has a polypeptide sequence set forth in SEQ ID NO:149 and comprises a Tim4 binding domain, Tim4 transmembrane domain, and an engulfment signaling domain comprising a primary engulfment signaling domain comprising a TLR2 signaling domain and a secondary engulfment signaling domain comprising a DAP12 signaling domain. Effector:target (E:T) cell ratio for co-culture was 2:1 or 5:1. […] Cell viability experiments were performed in triplicates and presented as % of control. Best-fit curves were generated from raw data using linear regression models.
CER21−, CER108−, CER104−, and CER129-transduced CD4+ T cells were tested for their ability to kill A549 ALK+ cells in the presence of ALK inhibitor. CD4+ T cells were transduced with a lentiviral vector comprising a CER21, CER108, CER104, CER129, CER27, CER120, CER122, CER123, CER124, or CER126 nucleic acid. […] After 48 hours of co-culture, T cells were washed away and the number of viable A549 ALK+ cells was quantified using a calorimetric MTT assay (FIGS. 67A-B). Cell viability experiments were performed in triplicates and presented as % of control. Bright field microscopy images were also obtained from A549 ALK+co-culture experiments. […] Arrow indicates cluster of dead A549 ALK+ cells surrounded by phagocytic CER104+ T cells. […]

| Molecule | bright field microscopy of HCC827 co-culture [1] | in vitro growth/viability of A549 ALK+ cells (MTT) (A549 ALK+ cells; 48 hours) | in vitro growth/viability of A549 ALK+ cells (MTT) (A549 ALK+ cells; 72 hours) | bright field microscopy of A549 ALK+ co-culture (A549 ALK+ cells; 48 hours) |
| --- | --- | --- | --- | --- |
| B1 | cluster of dead HCC827 EGFR^+ cells surrounded by phagocytic CER122^+ T cells | synergistically suppress in vitro growth of NSCLC cells harboring ALK rearrangements | synergistically suppress in vitro growth of NSCLC cells harboring ALK rearrangements | – |
| B2 | cluster of dead HCC827 EGFR^+ cells surrounded by phagocytic CER104^+ T cells | synergistically suppress in vitro growth of NSCLC cells harboring ALK rearrangements | synergistically suppress in vitro growth of NSCLC cells harboring ALK rearrangements | cluster of dead A549 ALK+ cells surrounded by phagocytic CER104^+ T cells |
| B3 | cluster of dead HCC827 EGFR^+ cells surrounded by phagocytic CER21^+ T cells | – | – | – |
| B4 | – | – | – | cluster of dead A549 ALK+ cells surrounded by phagocytic CER126^+ T cells |
